Assay results: paper PMC10786891, “Massively parallel profiling of RNA-targeting CRISPR-Cas13d”
Numbering of substitutions follows the chain as printed. Names and notes keep the numbering of the source.

T1: EsCas13d, nuclease-dead (Eubacterium siraeum, UniProt B0MS50, R295A;H300A;R849A;H854A)
T1 sequence: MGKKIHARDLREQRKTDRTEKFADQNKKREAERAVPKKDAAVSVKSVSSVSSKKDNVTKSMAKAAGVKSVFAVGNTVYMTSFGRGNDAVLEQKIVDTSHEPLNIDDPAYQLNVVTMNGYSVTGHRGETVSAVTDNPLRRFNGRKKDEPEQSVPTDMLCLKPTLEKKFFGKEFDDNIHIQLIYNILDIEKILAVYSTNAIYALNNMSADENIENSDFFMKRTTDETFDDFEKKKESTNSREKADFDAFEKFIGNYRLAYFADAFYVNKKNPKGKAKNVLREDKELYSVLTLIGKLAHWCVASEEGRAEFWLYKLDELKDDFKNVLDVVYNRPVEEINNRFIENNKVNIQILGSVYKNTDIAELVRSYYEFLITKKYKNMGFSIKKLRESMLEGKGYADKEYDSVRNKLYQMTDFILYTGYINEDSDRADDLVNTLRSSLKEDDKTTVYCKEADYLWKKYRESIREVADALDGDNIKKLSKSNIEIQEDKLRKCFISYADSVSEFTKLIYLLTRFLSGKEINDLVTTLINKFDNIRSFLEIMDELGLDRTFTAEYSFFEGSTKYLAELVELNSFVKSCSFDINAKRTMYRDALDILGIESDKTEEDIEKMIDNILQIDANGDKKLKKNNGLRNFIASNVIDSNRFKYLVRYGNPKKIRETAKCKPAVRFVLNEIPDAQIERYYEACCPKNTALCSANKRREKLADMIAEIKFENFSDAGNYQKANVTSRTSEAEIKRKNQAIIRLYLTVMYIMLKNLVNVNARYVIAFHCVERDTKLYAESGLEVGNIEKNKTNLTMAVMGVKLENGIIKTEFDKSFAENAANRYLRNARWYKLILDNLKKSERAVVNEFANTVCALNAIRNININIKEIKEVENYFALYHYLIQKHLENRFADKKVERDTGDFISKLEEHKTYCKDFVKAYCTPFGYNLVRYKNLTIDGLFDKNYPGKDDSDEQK

B1: target 3 G3A,C6U (mixed)
RNA 1: CACCCGUGCAAAAUUGCAGGGGUCUAAAACGACCUGAAUAUUUCAGAUCAAA
RNA 2: GGGAAUGGAUCCACAUCUACGAAUUCGUUUUUGAUCUGAAAUAUUUAGAUCUGCAGAUCGGAAGAGCACACGU
B2: target 3 A11C,A18C (mixed)
RNA 1: B1 RNA 1
RNA 2: B1 RNA 2 with A34C, A41C, U46C, A49G
B3: target 3 insG 3' of 1 (mixed)
RNA 1: B1 RNA 1
RNA 2: GGGAAUGGAUCCACAUCUACGAAUUCGUUUUUGAUCUGAAAUAUUCAGGUCGUGCAGAUCGGAAGAGCACACGU
B4: target 3 insC 3' of 8,insU 3' of 5 (mixed)
RNA 1: B1 RNA 1
RNA 2: GGGAAUGGAUCCACAUCUACGAAUUCGUUUUUGAUCUGAAAUAUCUCAUGGUCUGCAGAUCGGAAGAGCACACGU
B5: target 3 U8C,U22C (mixed)
RNA 1: B1 RNA 1
RNA 2: B1 RNA 2 with U30C, U44C, U46C, A49G
B6: target 3 complement block 2-7 (mixed)
RNA 1: B1 RNA 1
RNA 2: B1 RNA 2 with U45A, U46G, A47U, G48C, A49C, U50A
B7: target 3 U8C,A18G (mixed)
RNA 1: B1 RNA 1
RNA 2: B1 RNA 2 with A34G, U44C, U46C, A49G
B8: target 3 U2A,C6G (mixed)
RNA 1: B1 RNA 1
RNA 2: B1 RNA 2 with U46G, A49G, U50A
B9: target 3 insU 3' of 13,insG 3' of 2 (mixed)
RNA 1: B1 RNA 1
RNA 2: B4 RNA 2 with A40U, U42A, A43U, U44A, C45U, U49G, G51U, U52G
B10: target 3 insA 3' of 7,insC 3' of 5 (mixed)
RNA 1: B1 RNA 1
RNA 2: B4 RNA 2 with C45U, U46A, U49C
B11: target 3 U2A (mixed)
RNA 1: B1 RNA 1
RNA 2: B1 RNA 2 with U46C, A49G, U50A
B12: target 3 insU 3' of 16,insC 3' of 4 (mixed)
RNA 1: B1 RNA 1
RNA 2: B4 RNA 2 with G38U, A39G, U42A, A43U, U44A, C45U, U49G, G50C
B13: target 3 A18G,U21A (mixed)
RNA 1: B1 RNA 1
RNA 2: B1 RNA 2 with U31A, A34G, U46C, A49G
B14: target 3 G4C,A18G (mixed)
RNA 1: B1 RNA 1
RNA 2: B1 RNA 2 with A34G, U46C, G48C, A49G
B15: target 3 insC 3' of 5,insU 3' of 4 (mixed)
RNA 1: B1 RNA 1
RNA 2: B4 RNA 2 with C45U, U46C, C47A, A48C, U49G, G50U
B16: target 3 U2G,G3A (mixed)
RNA 1: B1 RNA 1
RNA 2: B1 RNA 2 with U46C, U50G
B17: target 3 insC 3' of 8,insG 3' of 8 (mixed)
RNA 1: B1 RNA 1
RNA 2: B4 RNA 2 with U46G, C47U, A48C, U49A
B18: target 3 U8G,A18G (mixed)
RNA 1: B1 RNA 1
RNA 2: B1 RNA 2 with A34G, U44G, U46C, A49G
B19: target 3 insG 3' of 6,insA 3' of 1 (mixed)
RNA 1: B1 RNA 1
RNA 2: B4 RNA 2 with C45U, U46C, C47G, U49G, G51U, U52C, C53A
B20: target 3 insC 3' of 8,insU 3' of 6 (mixed)
RNA 1: B1 RNA 1
RNA 2: B4 RNA 2 with A48U, U49A
B21: target 3 insU 3' of 5,insU 3' of 5 (mixed)
RNA 1: B1 RNA 1
RNA 2: B4 RNA 2 with C45U, U46C, C47A, A48U
B22: target 3 G4A,G19U (mixed)
RNA 1: B1 RNA 1
RNA 2: B1 RNA 2 with G33U, U46C, G48A, A49G
B23: target 3 G4A,C6A (mixed)
RNA 1: B1 RNA 1
RNA 2: B1 RNA 2 with U46A, G48A, A49G
B24: target 3 insU 3' of 1 (mixed)
RNA 1: B1 RNA 1
RNA 2: B3 RNA 2 with G52U
B25: target 3 A12C,U22A (mixed)
RNA 1: B1 RNA 1
RNA 2: B1 RNA 2 with U30A, A40C, U46C, A49G
B26: target 3 insU 3' of 1,insG 3' of 1 (mixed)
RNA 1: B1 RNA 1
RNA 2: B4 RNA 2 with C45U, U46C, C47A, A48G, U49G, G50U, G51C, C53G
B27: target 3 insG 3' of 6,insC 3' of 2 (mixed)
RNA 1: B1 RNA 1
RNA 2: B4 RNA 2 with C45U, U46C, C47G, U49G, G51U, U52C
B28: target 3 insG 3' of 9,insG 3' of 2 (mixed)
RNA 1: B1 RNA 1
RNA 2: B4 RNA 2 with U44G, C45U, U49G, G51U, U52G
B29: target 3 insU 3' of 4,insG 3' of 2 (mixed)
RNA 1: B1 RNA 1
RNA 2: B4 RNA 2 with C45U, U46C, C47A, A48G, G51U, U52G
B30: target 3 insA 3' of 6,insA 3' of 2 (mixed)
RNA 1: B1 RNA 1
RNA 2: B4 RNA 2 with C45U, U46C, C47A, U49G, G51U, U52A
B31: target 1 del14,del19 (mixed)
RNA 1: CACCCGUGCAAAAAUGCAGGGGUCUAAAACUGAGCGGAUAACCUCUCUAUGG
RNA 2: GGGAAUGGAUCCACAUCUACGAAUUCGUACCAAGAGGGUUAUCCGCUCACCGAGAUCGGAAGAGCACACGU
B32: target 1 C2G,C7G (mixed)
RNA 1: B31 RNA 1
RNA 2: GGGAAUGGAUCCACAUCUACGAAUUCGUACCAUAGAGAGGUUAUGCGCUGACCGAGAUCGGAAGAGCACACGU
B33: target 1 insU 3' of 20,insC 3' of 20 (mixed)
RNA 1: B31 RNA 1
RNA 2: GGGAAUGGAUCCACAUCUACGAAUUCGUACCAUCUAGAGAGGUUAUCCGCUCACCGAGAUCGGAAGAGCACACGU

target: T1, EsCas13d, nuclease-dead; test: crRNA (strand 1, pre-loaded); Mg2+; 40 mM Tris-HCl pH 7.5, 150 mM NaCl, 6 mM MgCl2, 1 mM DTT, 0.1% Tween-20, 0.2 mg/ml BSA; 25 C; 10 min per concentration, then washed; details: tags: His6-TwinStrep-SUMO cleaved; N-terminal SNAP kept (SNAP-Surface 488); label: 3' end held by stalled T7 RNA polymerase

Row | Binder | Kd
1 | B1 | 42 ± 5 nM
2 | B2 | 39 ± 4 nM
3 | B3 | 44.5 ± 9.5 nM
4 | B4 | 79.5 ± 15 nM
5 | B5 | 46 ± 8.5 nM
6 | B6 | 54.5 ± 7 nM
7 | B7 | 55.5 ± 4.5 nM
8 | B8 | 37 ± 5 nM
9 | B9 | 35.5 ± 7 nM
10 | B10 | 28.2 ± 1.85 nM
11 | B11 | 24.3 ± 1.8 nM
12 | B12 | 84.5 ± 27 nM
13 | B13 | 57.5 ± 10 nM
14 | B14 | 34.4 ± 3.95 nM
15 | B15 | 9.85 ± 0.85 nM
16 | B16 | 44 ± 6.5 nM
17 | B17 | 79 ± 15.5 nM

Row | Binder | Kd
18 | B18 | 72.5 ± 14.5 nM
19 | B19 | 76 ± 34 nM
20 | B20 | 78 ± 11.5 nM
21 | B21 | 3.87 ± 0.32 nM
22 | B22 | 98.5 ± 19.5 nM
23 | B23 | 23.8 ± 2.65 nM
24 | B24 | 85.5 ± 18.5 nM
25 | B25 | 71 ± 26 nM
26 | B26 | 20.4 ± 2.25 nM
27 | B27 | 74 ± 27 nM
28 | B28 | 63.5 ± 14.5 nM
29 | B29 | 19.5 ± 2.35 nM
30 | B30 | 4.2 ± 0.55 nM
31 | B31 | 79 ± 25 nM
32 | B32 | 8.9 ± 0.4 nM
33 | B33 | 75 ± 13 nM
